Source: a protein production outcome set (Wang et al. 2014)

Assay: label from the status in PepcDB records
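Also: failed if final PepcDB status was selected cloned or expressed and not failed if soluble or beyond.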

For “MTLNRILWNYLIAPTVITIAVCGCTTQTPNTQDLIAQSPKDSQLVRTLSARSDSGYSVAYSPSSVGTILASAGAKSIKLWNPNTGKLLRTLSGQAFTVSFSPDGQILASGSQDGSLNLWDVQTGKLIRTLQHSEPVLGVVFSPDGQTLVSNLDLGSIIRLWNWRTGEIIRIKDDPDAYQKGFENFKTQPATFSLDGQTLFATSGSGSMLQSWNLKTSKRTGSFDAKSSINAVAISPDGNTLATGIRDNAIKLWNINDGKLIHTLTGHQGQVRTVAFSPDGTLLASGSSDGTVKLWNATTGKEINTFTAHKEQVWSVAFNPDGKTLASTGQDGSVKIWGVSPQ”, the protein production was “failed”.

With “MKSKRGFTLLEVLVALAIFATAAISVIRSVSQHINTVNYLEEKMFAAMVVDNQMAQVMLNPQSLAAREGSEQMAGRTWYWKLSPVKTADNLLKAFDVSVATEKGATPVVTVRSYVAN” the protein production was “failed”.

In the case of “MLTGIGAIVFDLDGTLYQSESLGGQIAACADRYLADLLSVSPEEAGEIVRRVRRELTARFGREASLSDACRELGGDLRELHRRFAAEVAPEPHLRRDSRVVQLLRTLGANRELYLYTNNNRALSGRIMDAIGVTGLFRRVVTIEDSWRPKPDLQALEALFAALGRKPSECLFVGDRYDIDLRLPAELGCSVYLSRTVDELLGLTLPLSEEQQ”, the protein production was “failed”.

For “MRLERTFDPNDLSTQNMESPICLPIGFVHFLAQSQTLQQVLDTVAEWINRIFESDRTSITLYENSDYLKVYSFSGNKAIPADFLVPIDQAFVGRVFKNQQLIICDDVSQSDELDCVMLTSSGMGTCMDAPLMHGQMCLGTLNVAHHQTHFYTKEQAAQLQCIANWIALNIALHIQIMKMEHLATTDDLTGIPNRREFMRQIEHRLSEFRTQGIKFHVAILDLDNFKKLNDKFGHDAGDKSLIHAANTIKGHLRECDLLARVGGEEFAIVLRSRSSQEAMDTLETIRNALETTTIRYSGRDMTFTASIGVTQVCGLDDSFEPLVKRADLALYKAKETGRNRVEINHSEHQGVSNEQ”, the protein production was “failed”.

In the case of “MSERAGEKKLDLLITGVGGQGAILASDIIGKAAVISGIPIRAAETHGMAQRGGSVVNHIRLGSDLGSMIPKKGADIMLALEPMEAVRYLDFLKDGGVIIVNTQSIIPVTVTSGLSKYPEVQEILDALSEKYVVKAFNADELAHEAGSRLAMNVAMVGAVSGYLPISKEVLLESVKVLVPKKTIEINIRAFEMGREEVEES”, the protein production was “not failed”.

For “MEESKELNAVIDVIMLAGTILLKSGSEIHRVEDTMIRIAHSQGIVDCNVLAMPAAIFFSIENTNISRMKRVTSSSYNIEKVCDVNQISRQLVGGQIDLETAFKQLTALQAKPLPYTKLQVTLAATFSAPFFSVMFSGNIYDALGAGVATLFGFAFSLYVEKFIRIPFVTAFAGAFVFGIIAQFWARYTGFPSTADLIIAGAVMPFVPGIALTNAVRDIMTNHINSGMSKMFESLLITLALGAGTSVALVLMN”, the protein production was “failed”.

With “MMVAVIPAYNEEKNIISVLKDLSDINIDVIVVDDGSTDKTKTIINEFLEKNEFKNKIFPIFKEKNEGKSKALEDGTNYAINLNYDAIAYLDGDYQHKPSDIIPMYEKMKSENADAVFGIRKYKHIPFHRQFSNFLASVIMSITVSVFSGNFHIFRDIQCGFRIIKSEFLKNSYFGDGYSVEHLIALQLAKKNAKITEEYVTIDYHNDAISYITTKKILDVVKEVAKYVLSKH” the protein production was “failed”.

In the case of “MTPGTGSALGLLAAAVDAKAVAEIGTGCGVSGIHLLHGMRPDGVLTTVDPEPEHQQFARHAFRAAGFASNRARFIPGRALDVLPRLADAGYDLVFCDGDRLEYLDYLAESLRLLRPGGLVAFEGVFGAGRTIDSGPQPTEVLRVRELLRAVRESQELVPSLLPVGDGLLCAVKR”, the protein production was “failed”.

With “MVLEYVYCLLAFCLYFMAYCINPDCSQRENPDTSAVCQNCGTPLILQNRYRLRHFLRTDRGSYTEVFAIEDLVNRDQPKVLKSLKEVTPQLERLFQQEASILNTLRHPGLPIGEALFPLVLNTGRQLWCFVMEKIPGEDLQTWLSHHQYVTSYKTALDWLKQLTQILQFVHEEKFFHRDIKPANIMVCPDGKLVLIDFGAARKVTQTIINRESVTIVHSLGYTAPEQRDGHAVVQSDFYALGRTLIYLLTGIDPTGDRAQDLLNWSKYIQDPKTPKKFISLLQVMTDSHPYHRPPTAQAILEKIEKIDQHSHQWPKLLLSATCGVLLLFAGKSLYQEITLPRTCDNILNDYLSCGEESLTPSSFWGNSQPPPAKQLGMEQYRNRNFGAAVNFLETAFQQESDPETLIYLNNAKIHQQFPANQIYTIAVAVPLERRTDIGREILRGVAQAQTEALKKGRALRIIIADDSNREDSKTGNNARKIAQHLVKYRDLLAVLGHYSSEATKNSLPIYSQARVVLISATSTSQNLKDPFFFRTVPSDRIAAQKMVTYLLSALKQNQVAIFYSRGSEYAESLSQAVRESTKSLPLKVIDHQAAFNLASDRFNAITALNQAQTQGAKAIVLIPDAGVGLYNAIPNALRVIQSNINQVWIVAGDSLYSSDSFTSEKAFSSPEIKYTAWAVFWHPLNEINSTFVKEVQNLWKIDILSILSNTNITWRTATSYDATLVLSQAITQNPTRLGIKKTLSQPQFSVTGATGVIQFAGSDRQNGKITMVRVQRNCDDNGFFFIPSDRSLQCQ” the protein production was “failed”.

With “MPKKVVPEEARRRRRPTRQGAVLSEGLIVRTALRMLREHGTGGLTARRLGAALGADPSTLYRYFAGMDDLARAVGNELMGQALDGWTAQGDWRADLRSLGLALHSSYLAHPQAAVLTASRVSGRPREIAVDEAILGLLRGAGLTDRAAVRFYHAFIDLALAFAALDAGSLALPEEARRSDEDMWGTTYARLPAETHPNIAATAERLAARMPHSAYPVVLDTLLDGIAAELTGTAPEM” the protein production was “not failed”.

For “MPMPTMSQAPHSVRPLNRGHWIATYFIGVAGLSLALMLVLNLILLTTSQNPGKALLDSLSFSVAVLMVSLVLITLIAALPCILFFWLAQRFTWRHLWIYLVSGALAAQFAIPVMTKLLPELFNLPHGVSAALHYLQLASMFGGCGVFMGGLFWWRSGRHLR”, the protein production was “failed”.

For “MRRNRPGARHCPAFSGYPDPGFPRGSRRSGSSRRGKSRIMDWLKSLPGIGPLIARLMTTHAWRSYERLDRVKWTQLAAAMTFISFVALFPLLTVAAAIGAAALSEEQQKTLQDKLAEQVPGISDQLDIHALVQNAGTVGVIAGAVLLFTGIGWVGAMRDCLRAVWELDDDEENPFLRKLKDGGVLLGLGGAVLVTLATSTVASAMVGWTADRLGIERDGWGSVLLHITAFLVAVLADFLLLLYVLTLLPGVEPTRRRLVVAALIGAVGFELLKLLLSGYIQGVASKSMYGAFGVPVALLLWINFTSKLLLFCAAWTATPSDGPAEEEVSGASDDVPDRAAASGG”, the protein production was “failed”.

In the case of “TARLVAGLEDVQVYDGEDAVFSLDLSTIIQGTWFLNGEELKSNEPEGQVEPGALRYRIEQKGLQHRLILHAVKHQDSGALVGFSCPGVQDSAALTIQES”, the protein production was “not failed”.

For “MSKDAQQISALRRFSVSIISVALLVISGTVGYMYLENMSLLDALYMTVITVATVGFSEVRPLDDVGKIFTMVLIVGGTGIFFFTLTSVAVFFVSGEWKEHWEQQRNERMLRKLNDHFIICGYGRLGGSVAEELRAKAVPFVVIDNMIDNVLRARDEGFLAIKGNAADEEVLADAGLHRAKGLIAAAGNDAENVFIVLTARNLKPNLYIVARADCDGSESKLRRAGAEKVVMLYRSAGKRMASLLTEPELEEYLDELSNANNLNLRIAQYLVGDNSPLVGKSFQEVDLYNNHRINVVGYKLPDGELHTTPRPAEIIQKNGTIIVIGKSDDLEMLCKLAQGETQR”, the protein production was “failed”.

In the case of “MPTTQLHHHYVLCGWHVRSALTLPELPPWSATATPVDADVVIEEGEVPDRLDLHDPVESWLSVGRDGSVLLQVPQVVRIHVHAGRAMRVQRLNRHDESWRLFLLGSALGYLCLQRSLFPLHAACLRIGTQTVAFAGHSGAGKSTLAAALLKRGHGLLSDDLTVIRLDSAGAIMVLPAFPRLKLWRDTLESLQLPVTDAPPVRPGMEKFDLRPSAGFDAAPVRLDAVVVLGDASEPHLQRLSPQHALPLLHGYLARPQAAVRMGLHAATFAHAAAIARQVPVWRLRRPRRFDALDITVDLIEAHVGALEHHHHHH”, the protein production was “failed”.

For “MRCGWLLGFLFLLSVLSYPRPAVAMTVLAEEYAPLSYSVDGQPRGFAVELFHELERRLALPPSDVTFMAWSRAYRLLLRGPRHAILFMGRTMEREDKVWFVGPIWVEDDYFYKKAGSHVAAATLDEARTVSRIGVVRDDFYQLRLQEMGFTNLDLGTSHEQGLRKLAQGRVDLVPMGELTAASQIANYPGLSMDSFERTDIHLLRSEMYIGFSRDMAWVEVERWQKALDHLRQDGTYDQILRKFVPQWRSR”, the protein production was “failed”.

In the case of “MSQSMYSYPAMTANVGDMAGYTGTTQSLGADIASERTAPSRACQGDLGMSHQDWQAQWNQAMEALARAYRRCRRALRQIGVLERPVGDSSDCGTIRVGSFRGRWLDPRHAGPATAADAGD”, the protein production was “failed”.

With “MATKIDKEACRAAYNLVRDDGSAVIWVTFRYDGATIVPGDQGADYQHFIQQCTDDVRLFAFVRFTTGDAMSKRSKFALITWIGEDVSGLQRAKTGTDKTLVKEVVQNFAKEFVISDRKELEEDFIRSELKKAGGANYDAQSE” the protein production was “not failed”.

In the case of “MIHGFLCSTKSALPHPLDDPAFVTASACRLASRPFRFMPQSSRRQNRSGTLVFANWNYVLLLIGVALIVVGFTAMYLEGQYLGFISLYVSPVLIIGGYAEIIYALLWAPDEQSAAEEQ”, the protein production was “failed”.

With “MAILVTGSTGTIGSQVLAHLQGHNVEVRALTRSPETAQFPAGVTAVRGDLADPDSVRAALRGVSTLFLLAPNVADELTQAMLTLTVAREAGVKGIVYLSVFGGDGYADVPHFAGKYTVERMIEALDLPATILRPAYFIQNDLRQKDGLLKTGVYGSPIGKKGVSMVDIRDIGEAAAIELLRREQAATPLGRETYALVGPDSLTGEGIATIWREALGRAIRHGGDDLVVMEQRTKTMLPAWHALDLRLMFSRYQTEGAVATADDIERLTKLLGHAPRSYTAFARDAAAQWTKG” the protein production was “failed”.

For “MSVEIKRVDKHHCLDLVEIFIELEQYYFGDKAASEQDLANYLSHQVFSEHSGVKVIAAVEHDKVLGFATYTIMFPAPKLSGQMYMKDLFVSSSAPGKGIGLQLMKHLATIAITYNCQRLDWTAESTNPTARKFYKSIGASLIREKEYYRFEGNGLNKLAKSL”, the protein production was “not failed”.

In the case of “MKAPEGIACGKRQLVVSDTGGGRLLSYSIENGSVRGGTEIKAEQVPYPTKVQLTSKGEILVIDGKLRRIAHFSPEGSFAGYLDLKGVPAPATIAPRGIRVDDKDNIHILDIFGARVIVTDAAGTFQSQMPFPEGYRFISDLAVSASGTTLLLDSVASRVYAAARGETAFKPLTDGMKEYLQFPTSIATDKQGKIFILDQTGNAVVTLGQDGSFQGRQLNIGWKNSFLHYPSQLCISEENDIDVVIADRNNNRIQVFRVVRLEHHHHHH”, the protein production was “failed”.

In the case of “MRNGILYAILLYVFMFVLWFCFAYFIDTSTTIFNIPLWFFLSGILFPSIIFFWFVFLF”, the protein production was “failed”.

For “MSIESSATPTTPNAEALQLNSTEVRILGCLIEKQATNPETYPLTLNALVIACNQKTSRDPVMNLTQGQVGQSLRALEGRGLTRLVMGSRADRWEHKVDKGLELVPAQVILTGLLLLRGPQTVSELLTRSNRMHDFEDSEQVVHQLERLIARGLATLVPRQSGQREDRYMHLIGDPEDLQD”, the protein production was “not failed”.
